Experimental data reported in patent US20130005646A1 (Novo Nordisk, published 2013).
Starred links: 1 amine or outer side, 2 acyl side, 3 side chain; linkers in the order of their positions; H or OH if unused. Positions of bridges follow the written chain, without caps; N, C: chain ends. Non-standard residues stand in square brackets, D forms with d. *: point of attachment. C20 diacid = O=C(O)CCCCCCCCCCCCCCCCCCC(=O)*; C18 diacid = O=C(O)CCCCCCCCCCCCCCCCC(=O)*; γGlu = O=C(O)[C@H](CCC(=O)[*:2])N[*:1]; Orn = NCCC[C@H](N)C(=O)O; AEEA = NCCOCCOCC(=O)O

T1: human amylin 3(a) receptor (human calcitonin receptor + RAMP-3) (human, UniProt P30988 25-474; O60896 24-148)
T1 sequence (looked up) 1: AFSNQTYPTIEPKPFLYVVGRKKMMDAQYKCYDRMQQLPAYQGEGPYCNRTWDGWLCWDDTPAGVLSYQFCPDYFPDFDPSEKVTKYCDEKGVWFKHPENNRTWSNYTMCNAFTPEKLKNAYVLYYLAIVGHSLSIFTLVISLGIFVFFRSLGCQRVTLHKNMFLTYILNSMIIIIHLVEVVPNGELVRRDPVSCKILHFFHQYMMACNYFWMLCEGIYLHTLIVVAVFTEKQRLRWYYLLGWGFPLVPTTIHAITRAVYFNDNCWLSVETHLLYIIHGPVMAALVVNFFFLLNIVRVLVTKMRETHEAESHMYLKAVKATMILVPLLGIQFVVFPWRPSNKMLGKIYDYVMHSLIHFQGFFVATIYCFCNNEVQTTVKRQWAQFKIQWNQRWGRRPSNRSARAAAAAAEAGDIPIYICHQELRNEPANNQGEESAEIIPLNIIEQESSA
T1 sequence (looked up) 2: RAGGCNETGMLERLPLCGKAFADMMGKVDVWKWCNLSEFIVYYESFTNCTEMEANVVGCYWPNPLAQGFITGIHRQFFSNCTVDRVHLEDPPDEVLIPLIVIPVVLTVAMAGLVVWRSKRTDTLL

T2: rat amylin 3(a) receptor (rat calcitonin(a) receptor + rat RAMP3) (rat, UniProt P32214 25-516; Q9JJ73 23-147)
T2 sequence (looked up) 1: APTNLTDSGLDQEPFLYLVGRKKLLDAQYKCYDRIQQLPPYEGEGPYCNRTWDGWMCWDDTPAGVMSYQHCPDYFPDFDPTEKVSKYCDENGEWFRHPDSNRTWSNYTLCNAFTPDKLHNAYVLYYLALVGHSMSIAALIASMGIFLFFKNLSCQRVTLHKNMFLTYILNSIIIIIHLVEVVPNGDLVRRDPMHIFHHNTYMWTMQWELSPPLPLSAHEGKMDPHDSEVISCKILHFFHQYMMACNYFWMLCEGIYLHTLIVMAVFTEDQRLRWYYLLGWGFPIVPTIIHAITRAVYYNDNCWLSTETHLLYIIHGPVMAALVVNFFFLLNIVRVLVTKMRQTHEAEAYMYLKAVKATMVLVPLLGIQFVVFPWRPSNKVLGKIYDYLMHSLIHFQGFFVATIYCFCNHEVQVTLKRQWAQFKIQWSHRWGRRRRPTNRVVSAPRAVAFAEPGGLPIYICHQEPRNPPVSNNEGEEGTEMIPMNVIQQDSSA
T2 sequence (looked up) 2: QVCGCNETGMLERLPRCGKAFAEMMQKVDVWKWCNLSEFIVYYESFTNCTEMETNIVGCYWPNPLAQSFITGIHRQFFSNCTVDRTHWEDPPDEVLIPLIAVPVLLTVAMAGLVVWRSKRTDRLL

T3: rat calcitonin (a) receptor (rat, UniProt P32214 25-516)
T3 sequence (looked up): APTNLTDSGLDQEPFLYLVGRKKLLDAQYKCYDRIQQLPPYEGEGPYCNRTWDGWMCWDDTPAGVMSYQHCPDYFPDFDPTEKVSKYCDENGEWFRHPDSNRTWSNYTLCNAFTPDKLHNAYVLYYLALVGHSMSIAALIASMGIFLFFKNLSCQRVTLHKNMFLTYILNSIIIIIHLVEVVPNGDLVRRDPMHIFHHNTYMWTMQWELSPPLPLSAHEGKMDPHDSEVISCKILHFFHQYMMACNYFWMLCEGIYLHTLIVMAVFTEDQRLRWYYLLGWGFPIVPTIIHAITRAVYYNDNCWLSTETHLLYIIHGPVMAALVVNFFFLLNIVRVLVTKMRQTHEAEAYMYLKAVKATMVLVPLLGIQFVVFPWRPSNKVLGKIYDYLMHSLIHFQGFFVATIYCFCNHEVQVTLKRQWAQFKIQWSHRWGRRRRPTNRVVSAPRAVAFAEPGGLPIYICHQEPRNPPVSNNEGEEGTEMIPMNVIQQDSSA

T4: human calcitonin (a) receptor (human, UniProt P30988 25-474)
T4 sequence (looked up): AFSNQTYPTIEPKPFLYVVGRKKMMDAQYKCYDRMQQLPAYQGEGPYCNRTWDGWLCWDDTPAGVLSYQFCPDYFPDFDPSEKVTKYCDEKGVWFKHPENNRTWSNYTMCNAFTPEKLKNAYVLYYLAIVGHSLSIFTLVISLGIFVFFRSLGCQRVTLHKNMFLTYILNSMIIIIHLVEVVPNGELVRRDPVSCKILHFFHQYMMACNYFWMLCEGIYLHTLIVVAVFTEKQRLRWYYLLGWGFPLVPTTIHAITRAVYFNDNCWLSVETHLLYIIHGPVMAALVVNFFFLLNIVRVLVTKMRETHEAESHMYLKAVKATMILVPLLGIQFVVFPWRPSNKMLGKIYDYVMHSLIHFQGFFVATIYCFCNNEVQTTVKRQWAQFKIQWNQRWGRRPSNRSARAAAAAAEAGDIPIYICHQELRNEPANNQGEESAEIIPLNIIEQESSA


How the values were obtained:
Assay in all cases: cell-based or functional assay
[1] = target: T1, human amylin 3(a) receptor (human …)
[2] = target: T2, rat amylin 3(a) receptor (rat …)
[3] = target: T3, rat calcitonin (a) receptor
[4] = target: T4, human calcitonin (a) receptor

Binder | Amylin receptor human EC50 [1] [nM] | Amylin receptor rat EC50 [2] [nM] | CTa receptor rat EC50 [3] [nM] | CTa receptor human EC50 [4] [nM]
{C20 diacid-γGlu}-ECNTATCATQRLAEFLHRSSNNFGPILPPTNVGSNTP-NH2 (disulfide 2-7; SMILES CC[C@H](C)[C@H](NC(=O)[C@@H]1CCCN1C(=O)CNC(=O)[C@H](Cc1ccccc1)NC(=O)[C@H](CC(N)=O)NC(=O)[C@H](CC(N)=O)NC(=O)[C@H](CO)NC(=O)[C@H](CO)NC(=O)[C@H](CCCNC(=N)N)NC(=O)[C@H](Cc1c[nH]cn1)NC(=O)[C@H](CC(C)C)NC(=O)[C@H](Cc1ccccc1)NC(=O)[C@H](CCC(=O)O)NC(=O)[C@H](C)NC(=O)[C@H](CC(C)C)NC(=O)[C@H](CCCNC(=N)N)NC(=O)[C@H](CCC(N)=O)NC(=O)[C@@H](NC(=O)[C@H](C)NC(=O)[C@@H]1CSSC[C@H](NC(=O)[C@H](CCC(=O)O)NC(=O)CC[C@H](NC(=O)CCCCCCCCCCCCCCCCCCC(=O)O)C(=O)O)C(=O)N[C@@H](CC(N)=O)C(=O)N[C@@H]([C@@H](C)O)C(=O)N[C@@H](C)C(=O)N[C@@H]([C@@H](C)O)C(=O)N1)[C@@H](C)O)C(=O)N[C@@H](CC(C)C)C(=O)N1CCC[C@H]1C(=O)N1CCC[C@H]1C(=O)N[C@H](C(=O)N[C@@H](CC(N)=O)C(=O)N[C@H](C(=O)NCC(=O)N[C@@H](CO)C(=O)N[C@@H](CC(N)=O)C(=O)N[C@H](C(=O)N1CCC[C@H]1C(N)=O)[C@@H](C)O)C(C)C)[C@@H](C)O) | 0.0823 | 0.374 | 0.806 | 0.0864
{C20 diacid-γGlu}-HHHCNTATCATQRLAEFLHHSSNNFGPILPPTNVGSNTY-NH2 (disulfide 4-9; SMILES CC[C@H](C)[C@H](NC(=O)[C@@H]1CCCN1C(=O)CNC(=O)[C@H](Cc1ccccc1)NC(=O)[C@H](CC(N)=O)NC(=O)[C@H](CC(N)=O)NC(=O)[C@H](CO)NC(=O)[C@H](CO)NC(=O)[C@H](Cc1c[nH]cn1)NC(=O)[C@H](Cc1c[nH]cn1)NC(=O)[C@H](CC(C)C)NC(=O)[C@H](Cc1ccccc1)NC(=O)[C@H](CCC(=O)O)NC(=O)[C@H](C)NC(=O)[C@H](CC(C)C)NC(=O)[C@H](CCCNC(=N)N)NC(=O)[C@H](CCC(N)=O)NC(=O)[C@@H](NC(=O)[C@H](C)NC(=O)[C@@H]1CSSC[C@H](NC(=O)[C@H](Cc2c[nH]cn2)NC(=O)[C@H](Cc2c[nH]cn2)NC(=O)[C@H](Cc2c[nH]cn2)NC(=O)CC[C@H](NC(=O)CCCCCCCCCCCCCCCCCCC(=O)O)C(=O)O)C(=O)N[C@@H](CC(N)=O)C(=O)N[C@@H]([C@@H](C)O)C(=O)N[C@@H](C)C(=O)N[C@@H]([C@@H](C)O)C(=O)N1)[C@@H](C)O)C(=O)N[C@@H](CC(C)C)C(=O)N1CCC[C@H]1C(=O)N1CCC[C@H]1C(=O)N[C@H](C(=O)N[C@@H](CC(N)=O)C(=O)N[C@H](C(=O)NCC(=O)N[C@@H](CO)C(=O)N[C@@H](CC(N)=O)C(=O)N[C@H](C(=O)N[C@@H](Cc1ccc(O)cc1)C(N)=O)[C@@H](C)O)C(C)C)[C@@H](C)O) | 0.0853 | 0.0885 | 0.962 | 0.208
{C18 diacid-γGlu-AEEA-AEEA}-[dR][dR][Orn]CNTATCATQRLAEFLHRSSNNFGPILPPTNVGSNTY-NH2 (disulfide 4-9; SMILES CC[C@H](C)[C@H](NC(=O)[C@@H]1CCCN1C(=O)CNC(=O)[C@H](Cc1ccccc1)NC(=O)[C@H](CC(N)=O)NC(=O)[C@H](CC(N)=O)NC(=O)[C@H](CO)NC(=O)[C@H](CO)NC(=O)[C@H](CCCNC(=N)N)NC(=O)[C@H](Cc1c[nH]cn1)NC(=O)[C@H](CC(C)C)NC(=O)[C@H](Cc1ccccc1)NC(=O)[C@H](CCC(=O)O)NC(=O)[C@H](C)NC(=O)[C@H](CC(C)C)NC(=O)[C@H](CCCNC(=N)N)NC(=O)[C@H](CCC(N)=O)NC(=O)[C@@H](NC(=O)[C@H](C)NC(=O)[C@@H]1CSSC[C@H](NC(=O)[C@H](CCCN)NC(=O)[C@@H](CCCNC(=N)N)NC(=O)[C@@H](CCCNC(=N)N)NC(=O)COCCOCCNC(=O)COCCOCCNC(=O)CC[C@H](NC(=O)CCCCCCCCCCCCCCCCC(=O)O)C(=O)O)C(=O)N[C@@H](CC(N)=O)C(=O)N[C@@H]([C@@H](C)O)C(=O)N[C@@H](C)C(=O)N[C@@H]([C@@H](C)O)C(=O)N1)[C@@H](C)O)C(=O)N[C@@H](CC(C)C)C(=O)N1CCC[C@H]1C(=O)N1CCC[C@H]1C(=O)N[C@H](C(=O)N[C@@H](CC(N)=O)C(=O)N[C@H](C(=O)NCC(=O)N[C@@H](CO)C(=O)N[C@@H](CC(N)=O)C(=O)N[C@H](C(=O)N[C@@H](Cc1ccc(O)cc1)C(N)=O)[C@@H](C)O)C(C)C)[C@@H](C)O) | 0.0295 | 0.033 | 2.57 | 0.691

Other lines, results leading:

Amylin receptor human EC50 [1] [nM] | Amylin receptor rat EC50 [2] [nM] | CTa receptor rat EC50 [3] [nM] | CTa receptor human EC50 [4] [nM] | Binder
0.212 | 0.331 | 1.73 | 0.208 | {C20 diacid-γGlu}-HCNTATCATQRLAEFLHRSSSSFGPILPPTDVGSDTY-NH2 (disulfide 2-7; SMILES CC[C@H](C)[C@H](NC(=O)[C@@H]1CCCN1C(=O)CNC(=O)[C@H](Cc1ccccc1)NC(=O)[C@H](CO)NC(=O)[C@H](CO)NC(=O)[C@H](CO)NC(=O)[C@H](CO)NC(=O)[C@H](CCCNC(=N)N)NC(=O)[C@H](Cc1c[nH]cn1)NC(=O)[C@H](CC(C)C)NC(=O)[C@H](Cc1ccccc1)NC(=O)[C@H](CCC(=O)O)NC(=O)[C@H](C)NC(=O)[C@H](CC(C)C)NC(=O)[C@H](CCCNC(=N)N)NC(=O)[C@H](CCC(N)=O)NC(=O)[C@@H](NC(=O)[C@H](C)NC(=O)[C@@H]1CSSC[C@H](NC(=O)[C@H](Cc2c[nH]cn2)NC(=O)CC[C@H](NC(=O)CCCCCCCCCCCCCCCCCCC(=O)O)C(=O)O)C(=O)N[C@@H](CC(N)=O)C(=O)N[C@@H]([C@@H](C)O)C(=O)N[C@@H](C)C(=O)N[C@@H]([C@@H](C)O)C(=O)N1)[C@@H](C)O)C(=O)N[C@@H](CC(C)C)C(=O)N1CCC[C@H]1C(=O)N1CCC[C@H]1C(=O)N[C@H](C(=O)N[C@@H](CC(=O)O)C(=O)N[C@H](C(=O)NCC(=O)N[C@@H](CO)C(=O)N[C@@H](CC(=O)O)C(=O)N[C@H](C(=O)N[C@@H](Cc1ccc(O)cc1)C(N)=O)[C@@H](C)O)C(C)C)[C@@H](C)O)
0.0934 | 0.0645 | 0.379 | 0.15 | {C20 diacid-γGlu}-HCNTATCATQRLAEFLHRSSNNFGPILPPTNVGSNTY-NH2 (disulfide 2-7; SMILES CC[C@H](C)[C@H](NC(=O)[C@@H]1CCCN1C(=O)CNC(=O)[C@H](Cc1ccccc1)NC(=O)[C@H](CC(N)=O)NC(=O)[C@H](CC(N)=O)NC(=O)[C@H](CO)NC(=O)[C@H](CO)NC(=O)[C@H](CCCNC(=N)N)NC(=O)[C@H](Cc1c[nH]cn1)NC(=O)[C@H](CC(C)C)NC(=O)[C@H](Cc1ccccc1)NC(=O)[C@H](CCC(=O)O)NC(=O)[C@H](C)NC(=O)[C@H](CC(C)C)NC(=O)[C@H](CCCNC(=N)N)NC(=O)[C@H](CCC(N)=O)NC(=O)[C@@H](NC(=O)[C@H](C)NC(=O)[C@@H]1CSSC[C@H](NC(=O)[C@H](Cc2c[nH]cn2)NC(=O)CC[C@H](NC(=O)CCCCCCCCCCCCCCCCCCC(=O)O)C(=O)O)C(=O)N[C@@H](CC(N)=O)C(=O)N[C@@H]([C@@H](C)O)C(=O)N[C@@H](C)C(=O)N[C@@H]([C@@H](C)O)C(=O)N1)[C@@H](C)O)C(=O)N[C@@H](CC(C)C)C(=O)N1CCC[C@H]1C(=O)N1CCC[C@H]1C(=O)N[C@H](C(=O)N[C@@H](CC(N)=O)C(=O)N[C@H](C(=O)NCC(=O)N[C@@H](CO)C(=O)N[C@@H](CC(N)=O)C(=O)N[C@H](C(=O)N[C@@H](Cc1ccc(O)cc1)C(N)=O)[C@@H](C)O)C(C)C)[C@@H](C)O) [N-alpha-[(S)-4-Carboxy-4-(19-carboxynonadecanoylamino)butyryl]-[His1,Glu14,His17,Arg18]-pramlintide]
